Experimental data from PMC3561989.

Tests used:
hnRNP A1 (cited work) [1] = molecular target: hnRNP A1 (cited work) (UniProt P09651); assay: filter binding; conditions: cited from earlier work
hnRNP A1 (cited work) [2] = molecular target: hnRNP A1 (cited work) (UniProt P09651); assay: fluorescence assay; conditions: cited from earlier work
Lin28 ZnF = molecular target: T1, Lin28 ZnF (UniProt Q9H9Z2 137-176); assay: plate binding, coated protein
T1 chain: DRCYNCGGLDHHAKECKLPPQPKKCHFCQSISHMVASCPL

Chain of hnRNP A1 (cited work) (P09651 whole entry): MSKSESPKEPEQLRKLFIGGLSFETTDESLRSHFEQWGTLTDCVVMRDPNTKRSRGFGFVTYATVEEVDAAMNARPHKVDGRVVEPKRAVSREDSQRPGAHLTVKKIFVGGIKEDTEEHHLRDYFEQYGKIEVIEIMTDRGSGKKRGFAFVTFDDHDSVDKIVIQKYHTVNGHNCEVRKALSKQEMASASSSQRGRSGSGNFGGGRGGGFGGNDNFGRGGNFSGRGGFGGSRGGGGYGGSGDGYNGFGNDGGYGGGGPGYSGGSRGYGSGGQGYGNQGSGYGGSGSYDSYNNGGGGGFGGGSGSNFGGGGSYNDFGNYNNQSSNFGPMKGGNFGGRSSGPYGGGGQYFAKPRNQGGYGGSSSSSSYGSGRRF

For “UAUGAUAGGGACUUAGGGUG [hnRNP A1 SELEX winner]”, the Kd (hnRNP A1 (cited work) [1]) is listed as 1 nM and the Kd (hnRNP A1 (cited work) [2]) is listed as 2.5 nM.

B1: pre-miR-9-1 (structured_RNA)
RNA: UCUUUGGUUAUCUAGCUGUAUGAGUGGUGUGGAGUCUUCAUAAAGCUAGAUAACCGAAAGU
B1: binds (Lin28 ZnF).
